Data reported in US12098176B2, “Keratin BD-4, preparation method, and pharmaceutical composition and use thereof” (Institute of Materia Medica, Chinese Academy of Medical …, priority 2019, dated 2024).

What was measured:
[1] = tested on: yeast-induced fever model in rats; experiment: Yeast-induced fever model in SD rats; format: in vivo, rat; details: for Body temperature 2 hours after modeling: 2 h after 20% yeast s.c.; for Body temperature 4 hours after modeling: 4 h after 20% yeast s.c.; for Body temperature 6 hours after modeling: 6 h after 20% yeast s.c.; for Body temperature 8 hours after modeling: 8 h after 20% yeast s.c.; for Effect on increase in body temperature of model rats: vs model group P<0.05
Protocol: Experimental example 1 The pharmacodynamic test of protein BD-4 (the protein in Example 4) on the fever model of SD rats induced by yeast
• Normal control group; • Model group: yeast fever model; • Positive control group: Aspirin 300 mg/kg group; • Protein BD-4, 10 mg/kg group, 50 mg/kg group. Method:
(§1) Preparation of experimental animals: After the experimental animals adapt to the experimental environment (temperature 22° C.±2° C., relative humidity 50%±2%) for 1 day. Pre-adaptation to measure rectal temperature at 8:00 and 15:00, Rats were fasted and water was taken freely 12 h before experiment. let the animal to empty its feces before measuring the rectal temperature. Apply petroleum jelly to the electronic thermometer probe before each temperature measurement. Insert the rat rectum 2 cm (can be marked at 2 cm to ensure that the depth of each insertion is consistent), and record the body temperature after the reading is stable.
(§2) Subcutaneous injection of dry yeast to replicate rat fever model: The body temperature of the rats was measured before modeling. Qualified rats with a body temperature of 36.2-37.3° C. were selected and randomly divided into groups with 8 rats in each group. After oral administration of aspirin and different doses of protein BD-4, 20% yeast suspension (10 ml/kg) was injected subcutaneously immediately, and the normal control group was injected intraperitoneally with an equal volume of normal saline. the rats' body temperature was monitored after 2 hours for a total of 8 hours.
(§3) According to the body temperature measured at each time point on the day of the experiment, calculate the mean, standard deviation and standard error of the body temperature of each group of rats. The data of each group was compared with TTEST, and P<0.05 was considered as a significant difference.

[2] = tested on: PLO-induced epilepsy in mice; experiment: Pilocarpine (PLO) induced convulsive epilepsy in mice; format: in vivo, mouse; details: for Grade IV seizure rate / mortality rate: 10 mice; for Grade IV seizure rate / mortality rate / Number of deaths / Number of Grade IV cases: PLO 225 mg/kg i.p.; for Number of deaths / Number of Grade IV cases: of 10 mice; for Number of Grade IV cases: 30 min observation; for Level II onset incubation period / Level III onset incubation period / Level IV onset incubation period: mean ± SEM; for Level IV onset incubation period: no grade IV attack recorded as 1800 s
Protocol: Experimental example 3 The pharmacodynamic test of protein BD-4 (Example 4 protein) on convulsive epilepsy in mice caused by the convulsion agent Pilocarpine (PLO)
Model group: • Diazepam (Diazepam) 2 mg/kg group; • Protein BD-4, 50 mg/kg group, 200 mg/kg group. Method: Model Preparation and Administration:
The drug was administered once in the afternoon the day before modeling, PLO-225 mg/kg (modeling agent) was injected intraperitoneally 1 hour after the test drug was given to the stomach on the day of modeling. And positive drug can be administered once 20 minutes before modeling. Observe for 30 minutes after PLO injection.
Observation indicators: 1) Seizure situation: the time of seizures from grade II to grade IV; 2) the time to death.
Attack level: Refer to Racine grading standard: Level 0: No response; Grade I: manifested as twitching of facial muscles or the corners of the mouth; Level II: can nod; Level III: Twitching of one limb; Grade IV: rigidity or body twitching; Grade V: generalized epilepsy (generalized tonic seizures).
Count the number of grade IV seizures and deaths in each group of mice in the experiment; Level II, III and IV incubation period. […] Chi-square test was used for statistics of the number of cases. The mean value and standard error of the incubation period were calculated, and TTEST was used to compare the model group with other groups. P<0.05 was considered as a significant difference.

[3] = tested on: lipopolysaccharide (LPS) induced fever in rats; experiment: Lipopolysaccharide (LPS) induced fever in SD rats; format: in vivo, rat; details: for Body temperature 2 hours after modeling: 2 h after LPS 20 μg/kg i.p.; for Body temperature 4 hours after modeling: 4 h after LPS 20 μg/kg i.p.; for Body temperature 6 hours after modeling: 6 h after LPS 20 μg/kg i.p.; for Body temperature 8 hours after modeling: 8 h after LPS 20 μg/kg i.p.
Protocol: Experimental example 2 The pharmacodynamic test of protein BD-4 (Example 4 protein) on lipopolysaccharide (LPS) induced fever in SD rats.
Experiment Grouping: • Model group: lipopolysaccharide fever model; • Positive control group: Aspirin 300 mg/kg group, • Protein BD-4, 10 mg/kg group, 50 mg/kg group. Method: the method of intraperitoneal injection of Lipopolysaccharide to create fever model in rats.
as §1, with “experiment. before the experiment,” for “experiment.”
as §2, with “Intraperitoneal” for “Subcutaneous”, “lipopolysaccharide” for “dry yeast”, “lipopolysaccharide (20 μg/kg, 2” for “20% yeast suspension (10”, “intraperitoneally” for “subcutaneously”
as §3

B1: BD-4: recombinant keratin, amino acid sequence SEQ ID NO: 1, expressed in E. coli; the protein of Example 4 was tested (protein, listed as Bos taurus)
chain: MSYSCCLPNLSFRSSCSSRPCVPSSCCGTTLPGACNIPANVGSCNWFCEGSFNGSEKETMQFLNDRLASYLEKVRQLERDNAELESRILERSQQQEPLVCPNYQSYFRTIEELQQKILCSKSENARLVVQIDNAKLASDDFRTKYETEVSLRQLVEADLNGLRRILDELTLCKSDLEARVESLKEELICLKQNHEQEVNTLRSQLGDRLNVEVDAAPTVDLNRVLNETRAQYEALVETNRRDVEEWYIRQTEELNKQVVSSSEQLQSYQAEIIELRRTVNALEVELQAQHNLRDSLENTLTETEARYSCQLAQVQGLIGNVESQLAEIRSDLERQNQEYQVLLDVRARLECEINTYRGLLDSEDCKLPCNPCATTNACERPCISNPCVSRARCGPCNTFVH
Body temperature 2 hours after modeling ([1]; 10 mg/kg oral): 36.7 ± 0.1 °C
Body temperature 4 hours after modeling ([1]; 10 mg/kg oral): 37.1 ± 0.1 °C
Body temperature 6 hours after modeling ([1]; 10 mg/kg oral): 37.6 ± 0.1 °C
Body temperature 8 hours after modeling ([1]; 10 mg/kg oral): 37.6 ± 0.2 °C
Effect on increase in body temperature of model rats ([1]; 10 mg/kg, 4 hour after modeling): significantly inhibit the increase in body temperature
Body temperature 2 hours after modeling ([1]; 50 mg/kg oral): 36.6 ± 0.1 °C
Body temperature 4 hours after modeling ([1]; 50 mg/kg oral): 37.4 ± 0.1 °C
Body temperature 6 hours after modeling ([1]; 50 mg/kg oral): 37.5 ± 0.1 °C
Body temperature 8 hours after modeling ([1]; 50 mg/kg oral): 37.6 ± 0.1 °C
Effect on increase in body temperature of model rats ([1]; 50 mg/kg, 8 hours after modeling): significantly inhibit the increase in body temperature
Epilepsy grade II incubation period, comparison with model group ([2]; 50 mg/kg): statistically different from the model group
Epilepsy grade III incubation period, comparison with model group ([2]; 50 mg/kg): statistically different from the model group
Grade IV seizure rate ([2]; 50 mg/kg gavage): 70%
mortality rate ([2]; 50 mg/kg gavage): 0
Number of deaths ([2]; 50 mg/kg gavage): 0
Number of Grade IV cases ([2]; 50 mg/kg gavage): 7
Level II onset incubation period ([2]; 50 mg/kg): 95 ± 3 s
Level III onset incubation period ([2]; 50 mg/kg): 162 ± 5 s
Level IV onset incubation period ([2]; 50 mg/kg): 974 ± 192 s
Epilepsy grade III incubation period, comparison with model group ([2]; 200 mg/kg): statistically different from the model group
Grade IV seizure rate ([2]; 200 mg/kg gavage): 90%
mortality rate ([2]; 200 mg/kg gavage): 10%
Number of deaths ([2]; 200 mg/kg gavage): 1
Number of Grade IV cases ([2]; 200 mg/kg gavage): 9
Level II onset incubation period ([2]; 200 mg/kg): 95 ± 6 s
Level III onset incubation period ([2]; 200 mg/kg): 184 ± 17 s
Level IV onset incubation period ([2]; 200 mg/kg): 765 ± 135 s
Effect on body temperature of model rats ([3]; 10 mg/kg and 50 mg/kg, after modeling): tendency to lower the body temperature of model rats after modeling, but it is not statistically significant
Body temperature 2 hours after modeling ([3]; 10 mg/kg oral): 37.7 ± 0.1 °C
Body temperature 4 hours after modeling ([3]; 10 mg/kg oral): 37.8 ± 0.l
Body temperature 6 hours after modeling ([3]; 10 mg/kg oral): 37.8 ± 0.2 °C
Body temperature 8 hours after modeling ([3]; 10 mg/kg oral): 37.5 ± 0.2 °C
Body temperature 2 hours after modeling ([3]; 50 mg/kg oral): 37.6 ± 0.2 °C
Body temperature 4 hours after modeling ([3]; 50 mg/kg oral): 37.7 ± 0.2 °C
Body temperature 6 hours after modeling ([3]; 50 mg/kg oral): 37.6 ± 0.2 °C
Body temperature 8 hours after modeling ([3]; 50 mg/kg oral): 37.5 ± 0.1 °C
